Results: US20160200782A1
Blank lines part the entries; values can stand above or below the substance they belong to.

Columns and labels:
Assay in all cases: cell-based or functional assay
SAPK4(h) (human) = SAPK4(h) (human) (UniProt O15264)
IRAK1(h) (human) = IRAK1(h) (human) (UniProt P51617)
PKCτ(h) (human) = biological target: PKCτ(h) (human)
PKCζ(h) (human) = PKCζ(h) (human) (UniProt Q05513)
MAPKAP-K2(h) (human) = MAPKAP-K2(h) (human) (UniProt P49137)
GRK7(h) (human) = GRK7(h) (human) (UniProt Q8WTQ7)
PDK1(h) (human) = PDK1(h) (human) (UniProt O15530)
JNK2α2(h) (human) = JNK2α2(h) (human) (UniProt P45984)
PKCβI(h) (human) = PKCβI(h) (human) (UniProt P05771)
PKCβI(h) (human), sequence (P05771 whole entry): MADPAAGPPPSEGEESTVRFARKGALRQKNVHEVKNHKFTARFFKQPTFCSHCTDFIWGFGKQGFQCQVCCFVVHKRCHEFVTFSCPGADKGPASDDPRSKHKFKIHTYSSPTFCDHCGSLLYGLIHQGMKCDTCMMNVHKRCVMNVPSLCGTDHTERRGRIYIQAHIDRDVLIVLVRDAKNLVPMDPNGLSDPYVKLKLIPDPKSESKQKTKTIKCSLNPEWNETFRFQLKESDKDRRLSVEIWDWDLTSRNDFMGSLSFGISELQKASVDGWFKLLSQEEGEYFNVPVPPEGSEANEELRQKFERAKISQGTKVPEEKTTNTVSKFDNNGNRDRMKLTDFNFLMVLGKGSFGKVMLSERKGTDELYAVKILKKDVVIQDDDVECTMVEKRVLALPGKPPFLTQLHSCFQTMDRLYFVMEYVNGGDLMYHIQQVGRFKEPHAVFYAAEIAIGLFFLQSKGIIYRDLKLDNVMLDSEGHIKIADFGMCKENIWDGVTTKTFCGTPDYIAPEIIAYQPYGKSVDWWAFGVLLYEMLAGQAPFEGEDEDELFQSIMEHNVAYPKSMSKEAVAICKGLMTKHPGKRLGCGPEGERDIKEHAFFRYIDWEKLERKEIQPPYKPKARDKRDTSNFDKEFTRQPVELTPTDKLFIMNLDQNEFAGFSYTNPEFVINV

SGK2(h) (human) = SGK2(h) (human) (UniProt Q9HBY8)
SGK2(h) (human), sequence (Q9HBY8 whole entry): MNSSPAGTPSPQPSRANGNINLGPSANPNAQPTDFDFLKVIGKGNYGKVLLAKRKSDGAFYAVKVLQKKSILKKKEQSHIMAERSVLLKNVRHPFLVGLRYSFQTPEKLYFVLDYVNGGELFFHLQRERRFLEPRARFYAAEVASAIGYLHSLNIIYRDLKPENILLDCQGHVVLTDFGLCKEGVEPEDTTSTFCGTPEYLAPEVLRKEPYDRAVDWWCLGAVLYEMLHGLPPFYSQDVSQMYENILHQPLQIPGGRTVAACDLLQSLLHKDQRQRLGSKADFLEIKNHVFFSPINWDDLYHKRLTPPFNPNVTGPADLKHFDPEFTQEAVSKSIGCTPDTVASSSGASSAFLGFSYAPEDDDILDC

Txk(h) (human) = Txk(h) (human) (UniProt P42681)
EphA7(h) (human) = EphA7(h) (human) (UniProt Q15375)
Fyn(h) (human) = Fyn(h) (human) (UniProt P06241)
MELK(h) (human) = MELK(h) (human) (UniProt Q14680)
TSSK1(h) (human) = TSSK1(h) (human) (UniProt Q9BXA7)
RIPK2(h) (human) = RIPK2(h) (human) (UniProt O43353)
FGFR4(h) (human) = FGFR4(h) (human) (UniProt P22455)
Lyn(h) (human) = Lyn(h) (human) (UniProt P07948)
Lck(h) activated (human) = Lck(h) activated (human) (UniProt P06239)
CaMKIδ(h) (human) = CaMKIδ(h) (human) (UniProt Q8IU85)
CaMKIδ(h) (human), sequence (Q8IU85 whole entry, stated change not applied): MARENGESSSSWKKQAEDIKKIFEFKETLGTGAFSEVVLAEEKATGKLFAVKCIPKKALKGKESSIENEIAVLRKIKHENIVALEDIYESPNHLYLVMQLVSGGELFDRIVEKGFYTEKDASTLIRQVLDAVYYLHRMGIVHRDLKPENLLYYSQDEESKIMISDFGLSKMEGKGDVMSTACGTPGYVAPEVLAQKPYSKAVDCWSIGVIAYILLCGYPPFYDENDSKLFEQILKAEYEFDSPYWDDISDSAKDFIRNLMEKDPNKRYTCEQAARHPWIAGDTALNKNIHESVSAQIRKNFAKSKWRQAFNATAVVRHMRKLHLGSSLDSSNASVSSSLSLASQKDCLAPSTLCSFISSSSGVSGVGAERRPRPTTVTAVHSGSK

ULK3(h) (human) = ULK3(h) (human) (UniProt Q6PHR2)
CDK2/cyclinA(h) (human) = CDK2/cyclinA(h) (human) (UniProt P24941)
Rsk2(h) (human) = Rsk2(h) (human) (UniProt P51812)
EGFR(h) (human) = EGFR(h) (human) (UniProt P00533)
PKG1β(h) (human) = PKG1β(h) (human) (UniProt Q13976)
PKCθ(h) (human) = PKCθ(h) (human) (UniProt Q04759)
Plk3(h) (human) = Plk3(h) (human) (UniProt Q9H4B4)
CaMKIV(h) (human) = CaMKIV(h) (human) (UniProt Q16566)
[1] = biological target: EGFR(T790M,L858R)(h) (human) (UniProt P00533)
NEK7(h) (human) = NEK7(h) (human) (UniProt Q8TDX7)
PAR-1Bα(h) (human) = PAR-1Bα(h) (human) (UniProt Q7KZI7)
MINK(h) (human) = MINK(h) (human) (UniProt Q8N4C8)
MINK(h) (human), sequence (Q8N4C8 1-320 limits assumed): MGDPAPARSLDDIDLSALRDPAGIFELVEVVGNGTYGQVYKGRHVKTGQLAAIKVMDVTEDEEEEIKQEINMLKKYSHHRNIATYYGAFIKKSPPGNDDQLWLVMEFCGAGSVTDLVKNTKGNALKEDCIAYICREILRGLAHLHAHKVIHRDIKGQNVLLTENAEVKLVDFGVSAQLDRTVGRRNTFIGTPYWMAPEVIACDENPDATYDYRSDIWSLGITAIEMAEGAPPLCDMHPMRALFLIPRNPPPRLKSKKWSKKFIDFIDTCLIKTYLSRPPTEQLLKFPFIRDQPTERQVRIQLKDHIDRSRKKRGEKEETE

MARK1(h) (human) = MARK1(h) (human) (UniProt Q9P0L2)
MKK6(h) (human) = MKK6(h) (human) (UniProt P52564)
Mer(h) (human) = Mer(h) (human) (UniProt Q12866)
Mer(h) (human), sequence (Q12866 578-872 limits assumed): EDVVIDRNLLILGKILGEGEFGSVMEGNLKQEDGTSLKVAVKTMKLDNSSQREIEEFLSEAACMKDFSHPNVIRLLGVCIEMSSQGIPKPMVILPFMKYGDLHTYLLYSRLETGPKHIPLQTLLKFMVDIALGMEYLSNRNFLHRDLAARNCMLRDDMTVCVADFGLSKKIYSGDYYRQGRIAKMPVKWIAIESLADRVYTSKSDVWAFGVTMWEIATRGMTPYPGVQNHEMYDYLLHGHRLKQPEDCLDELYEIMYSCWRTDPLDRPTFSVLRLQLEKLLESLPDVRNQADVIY

Ax1(h) (human) = Ax1(h) (human) (UniProt P30530)
EphA3(h) (human) = EphA3(h) (human) (UniProt P29320)
EphA3(h) (human), sequence (P29320 566-983 limits assumed): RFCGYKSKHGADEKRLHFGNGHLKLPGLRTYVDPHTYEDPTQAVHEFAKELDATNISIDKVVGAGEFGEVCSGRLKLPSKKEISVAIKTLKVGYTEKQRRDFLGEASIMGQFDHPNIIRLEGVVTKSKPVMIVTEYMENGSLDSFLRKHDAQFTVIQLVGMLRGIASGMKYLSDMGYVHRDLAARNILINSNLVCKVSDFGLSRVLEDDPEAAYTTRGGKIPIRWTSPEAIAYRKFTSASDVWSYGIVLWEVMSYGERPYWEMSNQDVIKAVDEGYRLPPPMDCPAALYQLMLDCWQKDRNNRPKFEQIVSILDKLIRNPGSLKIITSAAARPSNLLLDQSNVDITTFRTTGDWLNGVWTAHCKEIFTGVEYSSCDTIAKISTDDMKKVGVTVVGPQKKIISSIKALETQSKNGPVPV

cKit(D816H)(h) (human) = cKit(D816H)(h) (human) (UniProt P10721)
cKit(D816H)(h) (human), sequence (P10721 544-976 D816H limits assumed): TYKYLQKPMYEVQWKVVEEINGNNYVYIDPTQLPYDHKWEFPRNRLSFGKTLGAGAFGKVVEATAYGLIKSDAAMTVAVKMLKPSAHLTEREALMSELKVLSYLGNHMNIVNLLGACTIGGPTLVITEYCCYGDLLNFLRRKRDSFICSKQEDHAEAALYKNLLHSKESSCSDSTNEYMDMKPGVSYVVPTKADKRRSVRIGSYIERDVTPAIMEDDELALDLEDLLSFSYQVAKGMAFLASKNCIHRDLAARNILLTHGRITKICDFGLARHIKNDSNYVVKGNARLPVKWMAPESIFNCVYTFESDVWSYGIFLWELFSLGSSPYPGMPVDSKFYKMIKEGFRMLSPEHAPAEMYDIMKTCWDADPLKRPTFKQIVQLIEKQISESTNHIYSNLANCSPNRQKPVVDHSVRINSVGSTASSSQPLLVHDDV

Met(M1268T)(h) (human) = Met(M1268T)(h) (human) (UniProt P08581)
WNK3(h) (human) = WNK3(h) (human) (UniProt Q9BYP7)
DAPK1(h) (human) = DAPK1(h) (human) (UniProt P53355)
DAPK1(h) (human), sequence (P53355 1-289 limits assumed): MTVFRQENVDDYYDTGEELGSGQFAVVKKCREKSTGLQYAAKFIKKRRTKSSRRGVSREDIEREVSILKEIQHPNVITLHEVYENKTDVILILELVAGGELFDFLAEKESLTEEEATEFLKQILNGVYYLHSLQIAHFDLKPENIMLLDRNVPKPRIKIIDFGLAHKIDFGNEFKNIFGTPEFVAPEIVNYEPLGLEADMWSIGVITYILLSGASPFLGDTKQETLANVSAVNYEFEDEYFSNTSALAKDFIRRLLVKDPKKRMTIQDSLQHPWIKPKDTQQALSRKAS

CHK2(h) (human) = CHK2(h) (human) (UniProt O96017)
SGK(h) (human) = SGK(h) (human) (UniProt O00141)
HIPK3(h) (human) = HIPK3(h) (human) (UniProt Q9H422)
CaMKIIγ(h) (human) = CaMKIIγ(h) (human) (UniProt Q13555)
MRCKβ(h) (human) = MRCKβ(h) (human) (UniProt Q9Y5S2)
cKit(V654A)(h) (human) = cKit(V654A)(h) (human) (UniProt P10721)
cKit(V654A)(h) (human), sequence (P10721 544-976 V654A limits assumed): as the sequence (P10721 544-976 D816H limits assumed) above, with V111A, H273D counted along it

Rsk3(h) (human) = Rsk3(h) (human) (UniProt Q15349)
PAK2(h) (human) = PAK2(h) (human) (UniProt Q13177)
PAK2(h) (human), sequence (Q13177 whole entry): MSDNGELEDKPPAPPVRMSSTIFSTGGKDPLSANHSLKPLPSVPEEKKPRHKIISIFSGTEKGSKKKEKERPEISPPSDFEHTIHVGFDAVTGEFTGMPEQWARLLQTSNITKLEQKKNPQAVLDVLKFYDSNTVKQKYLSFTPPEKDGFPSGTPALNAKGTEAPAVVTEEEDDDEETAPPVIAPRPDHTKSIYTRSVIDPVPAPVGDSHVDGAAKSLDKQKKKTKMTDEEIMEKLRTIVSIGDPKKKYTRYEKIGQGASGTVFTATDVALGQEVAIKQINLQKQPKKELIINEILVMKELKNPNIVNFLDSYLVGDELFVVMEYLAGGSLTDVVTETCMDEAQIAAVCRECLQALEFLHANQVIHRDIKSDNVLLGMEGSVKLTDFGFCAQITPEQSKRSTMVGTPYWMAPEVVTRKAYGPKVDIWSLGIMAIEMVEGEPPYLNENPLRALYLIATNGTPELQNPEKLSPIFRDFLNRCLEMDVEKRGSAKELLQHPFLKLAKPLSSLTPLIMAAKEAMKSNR

NEK6(h) (human) = NEK6(h) (human) (UniProt Q9HC98)
PDGFRβ(h) (human) = PDGFRβ(h) (human) (UniProt P09619)
BTK(R28H)(h) (human) = BTK(R28H)(h) (human) (UniProt Q06187)
cKit(D816V)(h) (human) = cKit(D816V)(h) (human) (UniProt P10721)
cKit(D816V)(h) (human), sequence (P10721 544-976 D816V limits assumed): as the sequence (P10721 544-976 D816H limits assumed) above, with H273V counted along it

Met(D1246H)(h) (human) = Met(D1246H)(h) (human) (UniProt P08581)
ASK1(h) (human) = ASK1(h) (human) (UniProt Q99683)
[2] = biological target: CDK7/cyclinH/MAT1(h) (human) (UniProt P50613)
CDK7/cyclinH/MAT1(h) (human), sequence (P50613 whole entry, chain 1 of 3): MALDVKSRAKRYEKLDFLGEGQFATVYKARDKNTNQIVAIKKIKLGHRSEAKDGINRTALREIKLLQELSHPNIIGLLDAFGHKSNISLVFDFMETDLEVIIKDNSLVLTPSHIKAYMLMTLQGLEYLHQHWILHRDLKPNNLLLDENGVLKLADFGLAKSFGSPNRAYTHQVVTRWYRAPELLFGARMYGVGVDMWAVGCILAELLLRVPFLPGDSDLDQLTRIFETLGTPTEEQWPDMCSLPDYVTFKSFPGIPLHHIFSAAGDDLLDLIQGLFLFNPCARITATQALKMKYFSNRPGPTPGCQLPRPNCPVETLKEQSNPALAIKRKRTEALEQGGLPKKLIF
CDK7/cyclinH/MAT1(h) (human), sequence (P51946 whole entry, chain 2 of 3, further chain): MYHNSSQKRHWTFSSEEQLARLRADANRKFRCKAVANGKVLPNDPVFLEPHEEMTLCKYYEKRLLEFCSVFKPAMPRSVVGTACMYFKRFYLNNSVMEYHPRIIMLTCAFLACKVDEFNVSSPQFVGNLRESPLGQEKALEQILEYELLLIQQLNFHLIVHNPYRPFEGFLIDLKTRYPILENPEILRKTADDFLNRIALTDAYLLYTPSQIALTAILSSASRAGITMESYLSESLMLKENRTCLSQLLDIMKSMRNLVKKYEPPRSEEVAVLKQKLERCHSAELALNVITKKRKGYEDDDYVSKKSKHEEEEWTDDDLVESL
CDK7/cyclinH/MAT1(h) (human), sequence (P51948 whole entry, chain 3 of 3, further chain): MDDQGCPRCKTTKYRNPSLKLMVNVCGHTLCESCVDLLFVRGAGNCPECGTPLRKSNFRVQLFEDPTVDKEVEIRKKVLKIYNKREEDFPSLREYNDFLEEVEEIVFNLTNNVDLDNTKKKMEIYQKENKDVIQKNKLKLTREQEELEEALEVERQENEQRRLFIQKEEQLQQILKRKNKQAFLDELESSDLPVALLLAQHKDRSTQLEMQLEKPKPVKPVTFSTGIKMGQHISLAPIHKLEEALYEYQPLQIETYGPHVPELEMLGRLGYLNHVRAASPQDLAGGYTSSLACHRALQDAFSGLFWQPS

Substance: MMI-0200 (peptide)
% activity (SAPK4(h) (human)): 106%
% activity (IRAK1(h) (human)): 101%
% activity (PKCτ(h) (human)): 97%
% activity (PKCζ(h) (human)): 98%
% activity (MAPKAP-K2(h) (human)): 35%
% activity (GRK7(h) (human)): 124%
% activity (PDK1(h) (human)): 143%
% activity (JNK2α2(h) (human)): 109%
% activity (PKCβI(h) (human)): 98%
% activity (SGK2(h) (human)): 119%
% activity (Txk(h) (human)): 98%
% activity (EphA7(h) (human)): 220%
% activity (Fyn(h) (human)): 75%
% activity (MELK(h) (human)): 59%
% activity (TSSK1(h) (human)): 98%
% activity (RIPK2(h) (human)): 98%
% activity (FGFR4(h) (human)): 75%
% activity (Lyn(h) (human)): 98%
% activity (Lck(h) activated (human)): 90%
% activity (CaMKIδ(h) (human)): 47%
% activity (ULK3(h) (human)): 164%
% activity (CDK2/cyclinA(h) (human)): 114%
% activity (Rsk2(h) (human)): 101%
% activity (EGFR(h) (human)): 83%
% activity (PKG1β(h) (human)): 57%
% activity (PKCθ(h) (human)): 101%
% activity (Plk3(h) (human)): 107%
% activity (CaMKIV(h) (human)): 71%
% activity [1]: 108%
% activity (NEK7(h) (human)): 96%
% activity (PAR-1Bα(h) (human)): 110%
% activity (MINK(h) (human)): 103%
% activity (MARK1(h) (human)): 102%
% activity (MKK6(h) (human)): 98%
% activity (Mer(h) (human)): 90%
% activity (Ax1(h) (human)): 99%
% activity (EphA3(h) (human)): 117%
% activity (cKit(D816H)(h) (human)): 106%
% activity (Met(M1268T)(h) (human)): 143%
% activity (WNK3(h) (human)): 97%
% activity (DAPK1(h) (human)): 113%
% activity (CHK2(h) (human)): 105%
% activity (SGK(h) (human)): 115%
% activity (HIPK3(h) (human)): 105%
% activity (CaMKIIγ(h) (human)): 94%
% activity (MRCKβ(h) (human)): 102%
% activity (cKit(V654A)(h) (human)): 113%
% activity (Rsk3(h) (human)): 109%
% activity (PAK2(h) (human)): 69%
% activity (NEK6(h) (human)): 98%
% activity (PDGFRβ(h) (human)): 137%
% activity (BTK(R28H)(h) (human)): 104%
% activity (cKit(D816V)(h) (human)): 118%
% activity (Met(D1246H)(h) (human)): 139%
% activity (ASK1(h) (human)): 101%
% activity [2]: 67%

Substance: MMI-0100 (peptide)
% activity (SAPK4(h) (human)): 98%
% activity (IRAK1(h) (human)): 97%
% activity (PKCτ(h) (human)): 110%
% activity (PKCζ(h) (human)): 82%
% activity (MAPKAP-K2(h) (human)): 19%
% activity (GRK7(h) (human)): 111%
% activity (PDK1(h) (human)): 144%
% activity (JNK2α2(h) (human)): 114%
% activity (PKCβI(h) (human)): 88%
% activity (SGK2(h) (human)): 103%
% activity (Txk(h) (human)): 87%
% activity (EphA7(h) (human)): 193%
% activity (Fyn(h) (human)): 71%
% activity (MELK(h) (human)): 74%
% activity (TSSK1(h) (human)): 99%
% activity (RIPK2(h) (human)): 92%
% activity (FGFR4(h) (human)): 67%
% activity (Lyn(h) (human)): 113%
% activity (Lck(h) activated (human)): 106%
% activity (CaMKIδ(h) (human)): 59%
% activity (ULK3(h) (human)): 142%
% activity (CDK2/cyclinA(h) (human)): 97%
% activity (Rsk2(h) (human)): 65%
% activity (EGFR(h) (human)): 95%
% activity (PKG1β(h) (human)): 71%
% activity (PKCθ(h) (human)): 102%
% activity (Plk3(h) (human)): 107%
% activity (CaMKIV(h) (human)): 87%
% activity [1]: 93%
% activity (NEK7(h) (human)): 97%
% activity (PAR-1Bα(h) (human)): 62%
% activity (MINK(h) (human)): 96%
% activity (MARK1(h) (human)): 109%
% activity (MKK6(h) (human)): 74%
% activity (Mer(h) (human)): 47%
% activity (Ax1(h) (human)): 81%
% activity (EphA3(h) (human)): 107%
% activity (cKit(D816H)(h) (human)): 79%
% activity (Met(M1268T)(h) (human)): 114%
% activity (WNK3(h) (human)): 100%
% activity (DAPK1(h) (human)): 97%
% activity (CHK2(h) (human)): 104%
% activity (SGK(h) (human)): 128%
% activity (HIPK3(h) (human)): 105%
% activity (CaMKIIγ(h) (human)): 106%
% activity (MRCKβ(h) (human)): 103%
% activity (cKit(V654A)(h) (human)): 69%
% activity (Rsk3(h) (human)): 76%
% activity (PAK2(h) (human)): 71%
% activity (NEK6(h) (human)): 109%
% activity (PDGFRβ(h) (human)): 116%
% activity (BTK(R28H)(h) (human)): 91%
% activity (cKit(D816V)(h) (human)): 117%
% activity (Met(D1246H)(h) (human)): 99%
% activity (ASK1(h) (human)): 100%
% activity [2]: 89%

% activity (SAPK4(h) (human)): 48%
% activity (IRAK1(h) (human)): 5%
% activity (PKCτ(h) (human)): 7%
% activity (PKCζ(h) (human)): 7%
% activity (MAPKAP-K2(h) (human)): 9%
% activity (GRK7(h) (human)): 93%
% activity (PDK1(h) (human)): 178%
% activity (JNK2α2(h) (human)): 81%
% activity (PKCβI(h) (human)): 1%
% activity (SGK2(h) (human)): -1%
% activity (Txk(h) (human)): 10%
% activity (EphA7(h) (human)): 189%
% activity (Fyn(h) (human)): 83%
% activity (MELK(h) (human)): 0%
% activity (TSSK1(h) (human)): 46%
% activity (RIPK2(h) (human)): 30%
% activity (FGFR4(h) (human)): 3%
% activity (Lyn(h) (human)): 31%
% activity (Lck(h) activated (human)): 76%
% activity (CaMKIδ(h) (human)): 0%
% activity (ULK3(h) (human)): 177%
% activity (CDK2/cyclinA(h) (human)): 87%
% activity (Rsk2(h) (human)): 14%
% activity (EGFR(h) (human)): -1%
% activity (PKG1β(h) (human)): 24%
% activity (PKCθ(h) (human)): 62%
% activity (Plk3(h) (human)): 122%
% activity (CaMKIV(h) (human)): -1%
% activity [1]: 53%
% activity (NEK7(h) (human)): 89%
% activity (PAR-1Bα(h) (human)): 97%
% activity (MINK(h) (human)): 5%
% activity (MARK1(h) (human)): 110%
% activity (MKK6(h) (human)): 18%
% activity (Mer(h) (human)): 17%
% activity (Ax1(h) (human)): 12%
% activity (EphA3(h) (human)): 33%
% activity (cKit(D816H)(h) (human)): 194%
% activity (Met(M1268T)(h) (human)): 239%
% activity (WNK3(h) (human)): 9%
% activity (DAPK1(h) (human)): 0%
% activity (CHK2(h) (human)): 13%
% activity (SGK(h) (human)): 2%
% activity (HIPK3(h) (human)): 85%
% activity (CaMKIIγ(h) (human)): 3%
% activity (MRCKβ(h) (human)): -10%
% activity (cKit(V654A)(h) (human)): 223%
% activity (Rsk3(h) (human)): 23%
% activity (PAK2(h) (human)): 44%
% activity (NEK6(h) (human)): 49%
% activity (PDGFRβ(h) (human)): 40%
% activity (BTK(R28H)(h) (human)): 10%
% activity (cKit(D816V)(h) (human)): 30%
% activity (Met(D1246H)(h) (human)): 150%
% activity (ASK1(h) (human)): -4%
% activity [2]: 15%
Substance: MMI-0500 (peptide)
